# Assay results: the DeepSol protein solubility set
# Experiment: soluble on expression in E. coli; label from the status in PepcDB or PDB records
row,Sequence,soluble on expression in E. coli
1,GHMFESAEVGHSIDKDTYEKAVIELREALLEAQFELKQQARFPVIILINGIEGAGKGETVKLLNEWMDPRLIEVQSFLRPSDEELERPPQWRFWRRLPPKGRTGIFFGNWYSQMLYARVEGHIKEAKLDQAIDAAERFERMLCDEGALLFKFWFHLSKKQLKERLKALEKDPQHSWKLSPLDWKQSEVYDRFVHYGERVLRRTSRDYAPWYVVEGADERYRALTVGRILLEGLQAALATKERAKRQPHAAPLVSSLDNRGLLDSLDLGQYLDKDAYKEQLAAEQARLAGLIRDKRFRQHSLVAVFEGNDAAGKGGAIRRVTDALDPRQYHIVPIAAPTEEERAQPYLWRFWRHIPARRQFTIFDRSWYGRVLVERIEGFCAPADWLRAYGEINDFEEQLSEYGIIVVKFWLAIDKQTQMERFKEREKTPYKRYKITEEDWRNRDKWDQYVDAVGDMVDRTSTEIAPWTLVEANDKRFARVKVLRTINDAIEAAYKKDKGA,soluble
2,MAHHHHHHMDCQALAKSLEQMNHLHNVKYLEAKDLTDFNQKSAYYICHQIAEKQLSKEGGHVVIGLSGGKTPIDVYKNIALVKDIKIDTSKLIFFIIDERYKRDDHKFSNYNNIKFLFESLKINEKEQLYRPDTSKNIVECVRDYNEKIKNMVKKYTKVDIAILGMGSDFHIASLFPNIFFNIYMNNYQNSYIYDESSIKVANSNDTSDNDNLDLLKEYVYFTTTNNFDVRKRITVSLDLLGNASSKIFLLNSTDKLDLWKNMLLKSYVDVNYCLYPAVYLIDSMNTTVVTCGYTNYPQMLEDIYVSNSSLS,soluble
3,MKSACSIITASIVLYKSKPDIIRDVITSFFSDTVTKKKLILIDNSPTDSLRVLQEERPEDIQYFFNNRNIGFGSAHNIGIREAARFNPSYHLILNPDVQFGPEVVPTLASYMDENPDIGLLMPQVYYPNGELQHLCKLFPRPWDVMLRRFVPYRSYRERNNERFELRNWSYDTIQDIPSLSGCFMFARMDILREVGGFDERFFMYAEDLDLCRRIGQVSRTVFFPKVSIMHTYAKGSYHDAKLLRHHIVSLIRYFNKWGWLFDAERRRVNRACLAVLRNQTTVKKD,not soluble
4,MGVPMGNGDCGAEFKCPPNFHKSNRVNGVWCIKVYPGNMTWWEAERECRCTIKGGHLSGIESNSEKRYVEEQTLSILDDKNIKNGAVWLGAYRRKECPSGKVSSDSICHDEKTFQFTDQHTCKTLIFQDWAANQPTNNAGDDCAVLLASTEASGSNSEASGKAAVKNCLHVQGTTPILSSVGFVCGVKAAQEGGNYGGYGGGDFMVIGAAKPKH,not soluble
5,MKNQLIDRLTRYTTIDTQSDPKSTTTPSTEKQWDLLHLLEKELQQLGLPTDLDENGYLFATLESNIDVDVPTVGFLAHVDTSPDFNASNVKPQIIENYDGKPYKLGNTKRVLDPKVFPELNSLVGHTLMVTDGTSLLGADDKAGIVEIMEAICYLQEHPEIKHGTIRIGFTPDEEIGRGPHKFDVDRFNADFAYTMDGSQYGELQYESFNAAEAVITCHGVNVHPGSAKNAMVNAIRLGEQFDSLLPDSEVPERTEGYEGFYHLMNFEGTVEKATLQYIIRDHDKKQFELRKKRILEIRDDINAHFENYPVKVDISDQYFNMAEKILPLPHIIDIPKRVFAKLDIPANTEPIRGGTDGSQLSFMGLPTPNIFTGCGNFHGPYEYASIDVMEKAVQVIIGIVEDIAENH,not soluble
6,ADKKRALEKEDMERLMKDIPKQLHSGNRELQRARGFFILMFLLRGMPFVDLAYLKKHDIDGNVLTYRRRKTGRMLTVTLLPEAVKLIKQHMNTDPAFPYLFSLISSKEGTEEAYKEYQLALRNFNYQLMILKQVLGLTTDLSSYTARHTWATMAYYCEVHPGVISEAMGHSSITVTETYLKPFKNKKIDEANVMVFSSFRKSFSVGNCLN,not soluble
7,CPRLIRFVMEEDYANLPPLRRFLRRAGVIPISASNRSSIRRAFNDVEEALNEGHIVCIFPEGRLTSDGEMNDFMRGIDIILRRSPVPVIPMALKGLWGSYFSRAKGRACRGFPTRFWSKLEIEAGEPVDPSSATAQTMFEKVHALRGDWR,not soluble
8,MGSDKIHHHHHHMLNIDGSKYIVNNNLKNYLDNIKKPWGILFYRVLWQQLDKIKTSKVLDFGSGFGITANHFASNNMVIAIEPNSELVEARIQENDYIQIVGDLKALKSQKDNYFDVILCHNVFEYAKEREEIFKEFLRILKPGGIISLVKHNHAGRIMQKVVFENNIDEAEKLLNGGIIEVLGFGKVSYYKLEDIKKWCKGFEVEIIKVLGIRTFWALQQDNKIKEDPIWQEKMFKIEMMVSNIDEYVNISFFNHIILKKALKNYALE,not soluble
9,SQPNSSIIKYPNKVRNLPGIAASLRTVGYSTHHLYGGDADFTNVRSYLYGTGYDEVTDVSSFPFKTRLSKWGTPDHISFPRLLDDCRRLEKEKKPYFYSFLTLSSHEPFDVPSQHHPDPYLNSVFYTDSCFGDYIRGMQQSPQWKNTLIIAVSDHGYPYPADQAMPDQPGRYGIVMLWAGGAILRPIRFEEVVSQSDLPATLLAQLGLTHDEFVFSKDVFRRNSPHFAYFSFPGLVGLATSEGTTIYDFAGDKIVYGHEAPLADQRAIAAKVMLQSVMKDMLSR,not soluble
10,MSLDIEEARTTGIIDDKEAESRSESLEKAYLKTPLDPWKGEICTVSLSAAAHESRVVPISHKVGQVFEPSMDRDEARKLVLDLLDEYLFKNEKVLKIAVNLSFETKYAAKYGKYILGKVADPLIMWVRCLQIAAPQKINNPKKPTSGWGLKPATKHIFGVTMNDFSALLKKYKVNFFDEIDASKGEGLLYSAEDSDYAVQHYEYWSQIAAQISRYEEWLHKIEMPFTRVIGLMEYWGMNWDPNLATQKKQEAEIMQEQAAERIKQIAKETFNIDINTGKSGKTNEVKSLMFDYLKIPIAKYGKTGASLDQEALIDMAFMLENKLNDIDEEKYLGVSLPENWENIDPEKDPTLDKLERGAIRIAKREPHPYKEQALEVIDQLKKIQKYTTLLSSHIIGREKYLNFMSGRIHAGYSPFTETGRLNSFNPNGQNVPRPDNDEFKIRNFFVPKPGKILFFIDFSGFELRLMAWKSGDEVMTELFNTGGDMHRRTASVMTGKSEAEIVKKERTDAKAGNFGISYGGTEHALQFTFKTKYMIRKTLDECAQIVNAVKTAYKRIPEYQRKIVLEAREQGYVQTIYGYMRLLPGINSANRRDRGSAERQAANTPVQGSAADIMKKVQNEIYESIGKQEGVLSHGSADMIAQIHDEIIFEIDDDPEIVVAVEKQIKQVMEQPPVPGFPVPIEAEGSVGYRWGEKMSVESWLKQREGHHHHHH,soluble
11,MIFRQIHEEGLAQMSYLLGCAATGEALVVDPRRDVDVYLELAQSLGLRITAIAETHIHADYLSGARELARATGATLYLSDEGDENWKYKGLEGFPHVLLKDGDEFKVGNIRVRAVHTPGHTPEHLSFLVADGAVTDEPLLFLTGDFVFVGDVGRPDLLEEAAGIKGTAEPGARRMFRSLKEKFLTLPDHVQVWPGHGAGSACGKALGALPATTVGYERRHAWWAEYLERDDEEGFVKALLQGQPEAPTYFKEMKRLNRDGMAILGGLPHPGRLTPAQFERWLREGAILVDTRDKFAFAGGHIPGSINIPAGKNFSTWAGWLLPYDRPLVLLARPEEVEALTRALVRIGLDEVVGYIPGLEGYAQGELETVPQVTAKEAKELWEKGKAFVLDVRGRDEYLAGHIPGAQNIHAGRVLAHLDRLPKDRPLIVHCVGGDRSSTAISALLAHGFRNALNLTGGIKAWREAGFPVVQGEELVQA,soluble
12,MRLYINEIKIKDDILYCYTEDSIKGLSEVGQMLVDSDNYAFAYTLDDGKAYAYLIFVQETWTMLHENTTKKIIINDELELTEFHQELTYILDNIKGNNNYGKEFVATVEETFDIE,not soluble
13,GLDVAISQNGFFRLVDSNGSVFYSRNGQFKLDENRNLVNMQGMQLTGYPATGTPPTIQQGANPAPITIPNTLMAAKSTTTASMQINLNSTDPVPSKTPFSVSDADSYNKKGTVTVYDSQGNAHDMNVYFVKTKDNEWAVYTHDSSDPAATAPTTASTTLKFNENGILESGGTVNITTGTINGATAATFSLSFLNSMQQNTGANNIVATNQNGYKPGDLVSYQINNDGTVVGNYSNEQEQVLGQIVLANFANNEGLASQGDNVWAATQASGVALLGTAGSGNFGKLTNGALEASNVDLSK,soluble
14,MEIGTVTSQEEKLAYEKSIEMAGNYANQFDAQMEANQAIARTLACTMAEYGSQDREEAMSIIKRILNENPQLIGVYLGYEPDAFDGRDKNYINAPGHDSTGRFVPYCNKINGPVIIEPLVHYDSSDYYQLPKTTGKDTLTEPYFYEGIFMVSYDSPIFKNGEFAGIAGVDVPLEYVDDVASSIRTFDTGYAFMVSNTGIFLSHPTQKNWIGEKSLSDFDVEEIKNAASDIREGIGGHVEIKDPITGKTVIMFYEPVKTGDFSFVLVVPKEEMLAGVKDLRDRLLEHHHHHH,soluble
15,MAGNHTNRPGLRKTNKKGATKGSGAVRRRGLKGKGPTPKAEDREYHAAYKKKMERKRRDQGRHVKEETSELVVGRNPVVECLHAKVPATT,not soluble
16,MAKKRGKPEIDWTDDDKEIIWVSKSEIKRDSEHLKKLGAELIELTPQNLEKIPLDEDLKYAIRQAQSFKLEARRRQIQFIGKLLRNRDSAPIQDALDKVKNRHNQQQALLHKLELIRDQLINMGDASLNQLLSEYPQLDRQHLRNLIRMAQKEKQINKPAKNYHEILQYLKSELIV,not soluble
17,MGSDKIHHHHHHMNSALYVGKVRHRRFTPVTHRFDYALFMALIDLDEIPALPHAGIALERFAPASFYRGDYLGGGDIKTKAQDRIAELTGERLTGKVLLLCQLRYLGCYFNPVNFYYLYDEHNQLRWLLAEVRNTPWNERHTYAVVPDGSTTVSKAFHVSPFNPMDMVYHWRLTPPVERLRIHIENHRQGREFDATLLLHRQPLTRAALRKQLWSLPLMTIKIACTIYWQALKLWIKRSPVYPHPQSGRKDNP,not soluble
18,MREDVPRAVTTICSALQEQIEHGLLPHGSKLPAERKLSEVFDTTRITLREALLQLEAQGLIYREERRGWFISPPRLAYDLIRRSHFHAMVCAQGRVAHTQLLSARLQPASAMICEMLELPALSSVIQICRARRIDQRLVLYVEHYLRPELFPGILDHDLNESLIELYARCYDVHYGPVRFDVVPTALHADAAAALKVSLGSPGLRIARVNYDRKDRLIDCDLEYWRHDAIHVRAMVRDN,not soluble
19,MKTFIKGLVLSAVVASSQVYAEQTLNVYAWGGYLPEKSLKAFEQQEGVTINYSTFENNESMYTKLKLLKGTGYDVVFASAYFIEKMGREGLLAEIDHNQIPNMKDAMPTVLGLAHDPQNKFSLPYIWGITGLYYNSSTLPNGITKWADLWDKQYEQQVMLIDDIRDVFGMALKLNGFSINTKNEEEIKKAYESLVALKKNVLLYNSDAPHVPYVSGEATLGMQWNGNAYQGQVEMPELKFVMPEEGAVLWMDNFTIPSGSKNIPLAHKFINFMYQPENQAEIVQSLGYASATKGGRALLPAELRDNPTIFPSDEDMKKGEFINDVGPETLAIYEKYWQRLRNQ,not soluble
20,MAKDIRVLLYYLYTPIENAEQFAADHLAFCKSIGLKGRILVADEGINGTVSGDYETTQKYMDYVHSLPGMEELWFKIDEENEQAFKKMFVRYKKEIVHLGLEDNDFDNDINPLETTGAYLSPKEFKEALLDKDTVVLDTRNDYEYDLGHFRGAIRPDIRNFRELPQWVRDNKEKFMDKRVVVYCTGGVRCEKFSGWMVREGYKDVGQLHGGIATYGKDPEVQGELWDGKMYVFDERIAVDVNHVNPTIVGKDWFDGTPCERYVNCGNPFCNRRILTSEENEDKYLRGCSHECRVHPRNRYVSKNELTQAEVIERLAAIGESLDQAATVLEHHHHHH,soluble
